Data reported in patent US20250170285A1, “RADIOLABELLED OLIGONUCLEOTIDES AND PROCESS FOR THEIR PREPARATION” (Hoffmann-La Roche Inc., priority 2018, published 2025).
Like-named read-outs stand apart in the source and are kept apart here.

Columns and labels:
[1] = Tissue exposure study: liver concentration of unlabeled LNAs by LC-MS/MS; conditions: analyzed by LC-MS/MS, FIG. 1
Procedure: (§1) Serial dilutions were made from stock solution (approx. 1 mg/mL in PCR grade water, the exact concentration of the stock solution will be quantified with the spectro-photometric device Nanodrop (Thermo Scientific) based on the extinction coefficient at 260 nm) to generate working solutions in water from approx. 100 ng/mL up to approx. 250000 ng/mL.
(§2) Calibration standards and quality control samples (freshly prepared in plasma, 50 μL) were treated for protein denaturation with 150 μL of 4 M guanidine thiocyanate after addition of the internal standard. After vigorously mixing (20 min at 1600 rpm), 200 μL of a water/hexafluoroisopropanol/diisopropylethylamine solution (100:4:0.2, v/v/v) were added, followed by mixing (15 min at 1500 rpm). Then a clean-up step was performed by means of solid-phase-extraction cartridges (Waters, OASIS HLB 5 mg, 30 μm) after elution and evaporation to dryness (30-45 min at +40° C.) the samples were reconstituted in 200 μL of mobile phase (water/methanol/hexafluoroisopropanol/diisopropylethylamine (95/5/1/0.2, v/v/v/v)). After vortex mixing (10 min at 1500 rpm), an aliquot (20 μL) was injected into a LC-MS/MS system (50 μL loop).
(§3) A Shimadzu 30ADXR pump was used, equipped with a Waters Acquity C18 column (50×2.1 mm) at 60° C. […]

[2] = in vivo
Procedure: as §1, §2, §3

[3] = Single dose PK experiment: liver concentration of tritium labeled LNAs by LSC; format: in vivo; conditions: single dose 1 mg/kg; liver 24, 72 and 336 h after dosing; radioactivity by LSC, FIG. 2
Procedure: A single dose PK experiment with Example 3.b ([^3H]-compound 2 based on conjugate 4) and Example 3.c ([^3H]-compound 3 based on conjugate 7) at 1 mg/kg was done. LNAs were analyzed in liver 24, 72 and 336 h after dosing. The study will confirm the feasibility of oligonucleotides with radioactive conjugation.
A Packard Tri-carb 3100TR was used for LSC analysis.
In FIG. 2 the liver concentration of the tritium labeled compounds of Example 3.b (dotted line) and Example 3.c (continuous line) have been analyzed by LSC.

Q: With “5′-G*A*G*t*t*a*c*t*t*g*c*c*a*A*C*T*-3′ (GAGTTACTTGCCAACT; all phosphorothioate, sugars by position and methylation of C not given here; further chemistry not fully specified) [LNA study compound A]” as the substance, how does the “liver concentration (liver uptake)” value [1] read?
A: The value was “lower level of uptake”.

Q: For “5′-GN2-C6-ca G*A*G*t*t*a*c*t*t*g*c*c*a*A*C*T*-3′ (CAGAGTTACTTGCCAACT; 5'-GalNAc2-C6 conjugate, LNA and phosphorothioate, case key not given here, further chemistry not given here) [GalNAc LNA study compound A]”, which “liver concentration (liver uptake)” value [2] is on record?
A: Its value is “high initial uptake in the liver plasma and a normal decrease over the time”.

Q: Which “liver concentration (liver uptake)” value [3] does the source give for “5′-GN2-C6-caG*A*G*t*t*a*c*t*t*g*c*c*a*A*C*T*-C6SH-[^3H]-NEM [Example 3.b]” here?
A: Its value is “equivalent liver uptake as a therapeutic GalNAc LNA”.
